{
  "source": "patent US20250101127A1",
  "about": "(CYRON THERAPEUTICS, published 2025)",
  "binders": {"B1": {"name": "MP1 monoclonal antibody (antibody, V domains shown)", "VH": "EVKVDETGGGLVQPGRPMKLSCVVSGITFSDYWMNWVRQSPEKGLEWVAQIRNKPYNYETYYSNSVKGRFTISRDDSKSSVYLQMNNLRAEDMGIYYCTWAMITSDGYAMDYWGQGTSVTVSS", "VL": "DIVMSQSPSSLAVSVGEKVTLICKSSQSLLLSSNQKNYLAWYQQKPGQSPKLLIYWASTRESGVPDRFTGSGSGTDFTLTINSVKAEDLAVYYCQQCFSYPLTFGAGTKLELK", "notes": "also called mouse antibody MP1; MP1 Ab"}},
  "target": "T1, MUC1 (Mucin-1) as expressed by human cancer cell lines (human, UniProt P15941 24-1255)",
  "T1 construct": "whole, on cells; Endogenous antigen on the cell surface (flow cytometry) or in cell lysates (immunoprecipitation, western blot); also called MUC1 antigen; antigen recognized by the MP1 monoclonal antibody",
  "T1 sequence (P15941 24-1255)": "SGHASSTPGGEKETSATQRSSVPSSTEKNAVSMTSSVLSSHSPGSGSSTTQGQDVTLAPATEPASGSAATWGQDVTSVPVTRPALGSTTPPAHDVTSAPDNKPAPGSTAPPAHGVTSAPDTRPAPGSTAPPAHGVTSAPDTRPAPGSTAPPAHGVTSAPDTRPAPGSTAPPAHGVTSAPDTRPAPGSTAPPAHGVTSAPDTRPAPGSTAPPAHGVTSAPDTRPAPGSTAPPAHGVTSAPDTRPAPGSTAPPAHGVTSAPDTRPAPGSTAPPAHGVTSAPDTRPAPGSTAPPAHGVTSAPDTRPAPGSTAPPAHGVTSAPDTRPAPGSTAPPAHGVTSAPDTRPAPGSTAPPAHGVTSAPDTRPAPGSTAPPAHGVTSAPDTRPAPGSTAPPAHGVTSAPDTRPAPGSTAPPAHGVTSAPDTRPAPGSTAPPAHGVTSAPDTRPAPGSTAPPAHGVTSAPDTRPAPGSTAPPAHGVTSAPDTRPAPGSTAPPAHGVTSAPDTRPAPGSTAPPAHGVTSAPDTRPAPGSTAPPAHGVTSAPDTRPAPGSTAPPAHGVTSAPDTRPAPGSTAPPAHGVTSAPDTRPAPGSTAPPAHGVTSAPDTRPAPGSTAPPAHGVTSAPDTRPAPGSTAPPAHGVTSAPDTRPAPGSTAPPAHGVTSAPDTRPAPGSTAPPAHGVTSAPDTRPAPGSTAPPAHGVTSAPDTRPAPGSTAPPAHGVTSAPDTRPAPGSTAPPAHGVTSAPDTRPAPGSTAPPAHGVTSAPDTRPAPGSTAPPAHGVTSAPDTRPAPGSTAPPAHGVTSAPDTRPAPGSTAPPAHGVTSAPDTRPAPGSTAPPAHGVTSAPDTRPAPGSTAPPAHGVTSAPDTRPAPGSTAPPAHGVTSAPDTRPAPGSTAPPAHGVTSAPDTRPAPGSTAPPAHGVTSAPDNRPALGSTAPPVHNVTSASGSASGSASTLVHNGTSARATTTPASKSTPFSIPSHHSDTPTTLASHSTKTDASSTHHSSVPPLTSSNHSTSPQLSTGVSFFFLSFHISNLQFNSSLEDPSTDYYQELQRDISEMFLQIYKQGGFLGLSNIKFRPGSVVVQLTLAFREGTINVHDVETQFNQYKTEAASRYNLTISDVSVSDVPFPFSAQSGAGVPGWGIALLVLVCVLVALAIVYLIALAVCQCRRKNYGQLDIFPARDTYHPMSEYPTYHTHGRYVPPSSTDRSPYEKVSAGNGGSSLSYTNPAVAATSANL",
  "experiment": "flow cytometry, SiHa cells; grade = percent MP1 positive cells (+: 20-30%)",
  "protocol": "The MP1 monoclonal antibody of the present invention was added to the cultured various cancer cells, respectively, and they were reacted at 4° C. for 30 minutes and then washed with PBS, and FITC-conjugated goat anti mouse IgG (Jackson ImmunoResearch, USA) was added and they were cultured at 4° C. for 15 minutes. They were washed with PBS again, and then were analyzed with FACS caliber (Becton Dickinson, USA) to confirm the reactivity of the MP1 antibody in various solid cancer cell lines (Table 9).",
  "data": [
    {"binder": "B1", "values": [
      {"measurement": "binding result", "value": "binds"}
    ]}
  ]
}
